The nanobody polyreactivity screen of Harvey et al. (2022)

Experiment: yeast display, Sf9 membrane polyspecificity reagent, FACS + sequencing; frameworks hold sequencing errors
Outline: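 A nanobody's polyreactivity label depends on the gate it was sorted from. Yeast display cells were stained with 10% biotinylated, detergent-solubilized Sf9 membrane reagent for 1 hour at 4 °C, enriched on streptavidin microbeads and sorted by FACS. The low and high (top ~1%) gates were set on anti-HA fluorescence for expression and streptavidin fluorescence for reagent binding.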

| Sequence | polyreactivity (PSR sort gate) |
| --- | --- |
| QVQLVESGGGLVQAGGSLRLSCAASVSIFRVYALGWYRQEPGKERELVAAITNGGNTNYADSVKGRFTISRDNAKNTVYLQMYSLKPVDTAVYYCAATLNRYWFRLYYYLGQGTQVTVSS | high polyreactivity |
| QVQLVESGGGLVQAGGSLRLSCAASVSIFYHYAMGWYRQAPGKESELVAAIDRTGGSTYYADSVKGRFTISRDNAKNTVYLQMNSLKPEDTAVYYCDADWDYADYYGFQYDYWGQGTQVTVSS | low polyreactivity |
| QVQLVESGGGLVQAGGSLRLSCAASVSIFYVYARGCYRQAPGKERELVAAITSSGTTNYADSVKGRFTISRDNAKNTVYLQMNSLKPEDTAVYYCAADPDSGQVPFDYWGQGTHVTVSS | low polyreactivity |
| QVQLVESGGGLVQAGGSLRLSCAASVSTFANNAMGWYRQAPGKERELVASITTDGSTNYADSVKGRFTISRDNAKNTVYLQMNSLKPEDTAVYYCAADYHTPSSFAPIELYDYWGQGTQVTVSS | low polyreactivity |
| QVQLVESGGGLVQAGGSLRLSCAASVSTFAPNAMGWYRQAPGKEMELVASIRRGGSTHYADSVKGRFTISRDNAKNTVYLQMNSLQPEDTAVYYCAAEFRDVSSNGYDYWGQGTQVTVSS | low polyreactivity |
| QVQLVESGGGLVQAGGSLRLSCAASVSTFDSYVMGWYRQAPGKERELVAAITSGGSTYYADSVKGRFTISRDNAKNTVYLQMNSLKPVDTAVYYCNRDERVGKWGYYWGQGTQVTVSS | low polyreactivity |
| QVQLVESGGGLVQAGGSLRLSCAASVSTFISYAMGWYRQAPGKERELVAAISSSTGRTYYADSVKGRFTISRDNAKNTVYLQLNSLKPEDTAVFYCNAVHRYERDYWGQGTQVTVSS | high polyreactivity |
| QVQLVESGGGLVQAGGSLRLSCAASVSTFWFYAMGWYRQAPGKERELVAVISNSGSTYYADSVKGRFTISRDNAKNTVYLQMNSLKPEDTAVYYCAADVEGWTVESDVYRVGYDYWGQGTQVTVSS | low polyreactivity |
| QVQLVESGGGLVQAGGSLRLSCAASVSTFYGYAMGWYRQAPGKERELVAAITSTVITDYADSVKGRFTISRDNAKNTVYLQMNSLKPEDTAVYYCSADRYDSSQFYYWGQGTQVTVSS | low polyreactivity |
| QVQLVESGGGLVQAGGSLRLSCAASVYGMGWYRQAPGKERELVAAISNGGTTYYADSVKGRFTISRDNAKNTVYLQMNSLKPEDTAVYYCAARSWPGGFIYYYWGQGTQVTVSS | low polyreactivity |
| QVQLVESGGGLVQAGGSLRLSCAASVYTSNYYAMGWYRQAPGKEREFVAAITASSVSTYYADSVKGRFTISRDNAKNTVYVQMNSLKPEDTAVYYCAVVYISYTSWLWVYWLVDFDYWGQGTQVTVSS | low polyreactivity |
| QVQLVESGGGLVQAGGSLRLSCAASYAMGWYRQAPGKERELVATITSGGVSTYYADSVKGRFTISRDNAKNTVYLQMNSLKPEDTAVYYCAATASHSTSADYDYWGQGTQVTVSS | low polyreactivity |
| QVQLVESGGGLVQAGGSLRLSCAATGFIFPLYAMGWYRQAPGKQSELVAAITWRGDTTSYADSVKGRFTISRDNAKNTVYLQMNSLKPVDPAVYYCAADSYRYRPGYGPVLYDYWGQGTQVTVSS | high polyreactivity |
| QVQLVESGGGLVQAGGSLRLSCAATGFTFGRYAMGWYRQAPGKERELVAAITWSGGSTYYADSVKGRFTISRDNAKNTVYLQMNSLKPEDTAVYYCNRLSNNREYDYWGQGTQVTVSS | high polyreactivity |
| QVQLVESGGGLVQAGGSLRLSCAATGGIFDYYAMGWYRQAPGKERALVAAIRGGGSTNYADSVKGRFTISRDNAKNTVYLQMNSLKPEDTAVYYCAKDSPFTSVTVLAPIIYDSWGQGTQVTVSS | low polyreactivity |
| QVQLVESGGGLVQAGGSLRLSCAATGIIFGTYAMGWYLQAPGTERELVAVISWRGGTYADSVKRRFTISRDNAKNTVYLQMNSLKPEDSAVYYCNARTWARLGSYWWIVDSWGQGTQVTVSS | high polyreactivity |
| QVQLVESGGGLVQAGGSLRLSCAATGITFGRNTMGWYRQAPGKERDLVAAIDSGGNTYADSVKGRFTISRDNAKNTVYLQMNSLKPEDTGVFYSAGDGGELSSYGYWGQGTQVTVSS | low polyreactivity |
| QVQLVESGGGLVQAGGSLRLSCAATGRIFNYYAMGWYRQAPGKERELVAAISNGGSTYYADSVKGRFTISRDNAKNTVYLQMNSLKPEDTAVYYCNAAARNGYARRVYYWGQGTQVTVSS | high polyreactivity |
| QVQLVESGGGLVQAGGSLRLSCAATGRIFRYYAMGLYRQAPGNERELVAAIRRGGSTTYADSVKGRFTISRDNAKNTFYLQMNSLKPEDTAVYYCAATQYYRGYDYWGQGSQVTVSS | high polyreactivity |
| QVQLVESGGGLVQAGGSLRLSCAATGRIFRYYTMGWYRQAPGKERELVAAITSSSGSTYYADSVKGRFTISRDNAKNTVYLQMNSLKPEDTAVYYCNAVRYTTQTPNVDYGYWGQGTQVTVSS | high polyreactivity |
| QVQLVESGGGLVQAGGSLRLSCAATGRIFTTYAMGWYRQAPGKERELVAAITSGGGTYYADSVKGRFTISRDNAKNTVYLQMNSLKPEDTAVYYCNADYSADYYWYYYCGQGTQVTVSS | low polyreactivity |
| QVQLVESGGGLVQAGGSLRLSCAATGRIFWVYAMGWYRQAPGKERELVAAINTSVGRTHYADSVKGRFTISRDNAKNTVYLQMNSLKPEDTAVYYCAADVKRYGWEYGYWGQGTQVTVSS | low polyreactivity |

| Sequence | polyreactivity (PSR sort gate) |
| --- | --- |
| QVQLVESGGGLVQAGGSLRLSCAATGRIFYYYTMGWYRQAPGKERELVAAISWGGVNTDYADSVKGRFTISRDNAKNTVYLQMNSLKPEDTAVYYCAAGRWSVGTYDYWGQGTQVTVSS | low polyreactivity |
| QVQLVESGGGLVQAGGSLRLSCAATGRILYYYAMVWYRQAPGKEREVVAASTSGGSTYADSVKGRFTISRDNAKNTVYLQMNSQKPEDTAVYYCNADSTVYDTEYAYWGQGTQVTVSS | low polyreactivity |
| QVQLVESGGGLVQAGGSLRLSCAATGRTFEGYAMGWYRQAPGKERELVAAISNSGGSTYYADSVKGRFTISRDNAKNTVYLQMNSLKPEDTAVYDCAALSRIRRYGYWGQGTQVNVSS | high polyreactivity |
| QVQLVESGGGLVQAGGSLRLSCAATGRTFGFNDMGWYRKATGKEREFVAAINSGGNTYYADSVKGRFTISRDNAKNTVYLQMNSLKPEDTAVYECAVKRASRYYVRKEYYYWGQGTQVTVSS | high polyreactivity |
| QVQLVESGGGLVQAGGSLRLSCAATGRTFGSNAMGWYRQAPGKERELVAAISLRGGRTYYADSVKGRFTISRDTAKNTVYLQMNSLKPEDTAVYYCNAVHYLYGARSRLTYDYWGQGTQVTVSS | high polyreactivity |
| QVQLVESGGGLVQAGGSLRLSCAATGRTFTVNPMGWYIQAPGKERELVAAITGSGGSTYYADSVKGRFTISRDNGKNTVYLQMNSLKPEDTAGYYCAADVNWFRWWSGSVELDYWGQGTQVTVTS | low polyreactivity |
| QVQLVESGGGLVQAGGSLRLSCAATGRTFVTYAMGWYRQAPGKEREFVAAITWSTGTSTYYADSVKGRFTISRDNAKNTVFLQIHSLNQEDTAVDYCHADSQEWIWLYEGYDYWGQGTQVSVSS | low polyreactivity |
| QVQLVESGGGLVQAGGSLRLSCAATGRTLGGNAMGWYRLAPGKEREFVARISTRGVRTYYAYSVKGRFTISRDNAKNTVDLQLNSLNPEDTAVYYCAKQVSYGHIGSYPDRDSWGQGTQVTVSS | low polyreactivity |
| QVQLVESGGGLVQAGGSLRLSCAATGRTSTYYPMGWYRQAPGKERELVAAIRSGTITNYADSVKGRFTISRDNAKNTVYLQMNSLKPEDSAVYYCAAKYRYSTYHRGSFNYWGQGTQVTVSS | high polyreactivity |
| QVQLVESGGGLVQAGGSLRLSCAATGSIFARYAMGWYRQAPGKERELVAAIDQSAGSTYYADSVKGRFTISRDNAKNTVYLQMNSLKPEDTAVYYCNADFWYWWVNTYVGPGLGYWGQGTQVTVSS | high polyreactivity |
| QVQLVESGGGLVQAGGSLRLSCAATGSIFFDNAMGWYRQAPGHERELVAAITSSGGRTYYADSVKGRFTISRDNAKNTVYLQMNSLKPEDTAVYYCAASPKYTTGRYSGEYWGQGTQVTVSS | low polyreactivity |
| QVQLVESGGGLVQAGGSLRLSCAATGSIFFINAMGWYRQAPGKERELVAAITWDGGSTYYADSVKGRFTISRVNAKNTVYLQMNSLKPEDTAVYYCAAVADYYDFISPPLDYWGQGTQVNVSS | low polyreactivity |
| QVQLVESGGGLVQAGGSLRLSCAATGSIFNFYAMGWYRQAPGKERELVAAIDQNGGSTYYADSVKGRFTISRDNAKNTVYLQMNSLKPVDTAVYYCAKDHQSGRRTYTYRYDYWGQGTQVTVSS | low polyreactivity |
| QVQLVESGGGLVQAGGSLRLSCAATGSTFHNYAMGWYRQAPGKERELGAGISVRGGGTYYADSVKGRFTISRDNAKNTVYLQMNSLKPEDTAVYYFAKRSRYYYRYDYWGQGTQVTVSS | high polyreactivity |
| QVQLVESGGGLVQAGGSLRLSCAATGSTFIGYAMGWYRQAPGKETELVAAISEIGGSTYYADSVKGRFTISRDNAKNTVYLKMNSLKPEDTAVDYCAATEVYLYFWYGYEYWGQGTQVTVSS | low polyreactivity |
| QVQLVESGGGLVQAGGSLRLSCAATGSTLVPNAMGWYRQAPGKERELVAAITRGTITHYADSVKGRFTISRDNAKNTVYVQMNSLKPEDTAVYYCNADVSLDDYDYWGQGTQVTVSS | low polyreactivity |
| QVQLVESGGGLVQAGGSLRLSCAATGYIGGNAMGWYRQAPWKERELVATLSRSGGSTYYADSVKGRFTISRDNAKNTVYLQMNSLKPEDSAVYYCAAVSYGNYHWGMYYWGQGTQVTVSS | low polyreactivity |
| QVQLVESGGGLVQAGGSLRLSCAATGYTFYIYAMGWYRQARGKERELVASITSDGRTNYADSVKGRFTISRDNAKNTVYLQMNSLKPEDTAVYYCATVGKVHDRLVAMDYWGQGTQVTGSS | low polyreactivity |
| QVQLVESGGGLVQAGGSLRLSCAATRRTFYSYAMGWYRQAPGKESELLASITSTGSTYYADSVKGRFTISRDNAKNTVYLQMNSLKPEDTAVYYCAARRQPRYSQRSTYYYWGQGTQVTVSS | high polyreactivity |
| QVQLVESGGGLVQAGGSLRLSCAATVLKFGKNPMGSYRQATGKERELVAVISWRGSSTYYADSVKGRFTISRVNAKNTVFLQMNSLKPEDTAVYYCTDVYVYVHYQPGYYWGQGTQVTVSS | low polyreactivity |
| QVQLVESGGGLVQAGGSLRLSCAAYAMGWYRQAPGKERELVAAMSSSGGSTYYADSVKGRFTISRDNAKTTVYLQMTSLKPEDTAVYYCARDPDTYFFPPTGYYTSGFDSWGQGTQVTVSS | low polyreactivity |
